The results in this text go back to patent publication US20210363261A1 (DRAGONFLY THERAPEUTICS, published 2021).

For this experiment, the target named is T1, fibroblast activation protein (FAP) expressed on human cell lines LL86, COLO 829 and U-87 MG (human, UniProt Q12884 1-760).
T1 construct: the assays used endogenous FAP on human cell lines
Briefly: flow cytometry on LL86, COLO 829 and U-87 MG cells, anti-human IgG detection, MFI fold over background. How it is done: Multi-specific binding proteins or corresponding monoclonal antibodies (mAb) having the same FAP binding site were diluted and incubated with the cells. Binding was detected using fluorophore-conjugated anti-human IgG secondary antibody. Cells were analyzed by flow cytometry and express as mean fluorescence intensity (MFI) normalized to human recombinant IgG1 stained controls to obtain fold over background (FOB) values.

B1: corresponding monoclonal antibody having the same FAP binding site as FAP-multi-specific BP Sibrotuzumab (antibody, V domains shown)
VH: QVQLVQSGAEVKKPGASVKVSCKTSRYTFTEYTIHWVRQAPGQRLEWIGGINPNNGIPNYNQKFKGRVTITVDTSASTAYMELSSLRSEDTAVYYCARRRIAYGYDEGHAMDYWGQGTLVTVSS
VL: DIVMTQSPDSLAVSLGERATINCKSSQSLLYSRNQKNYLAWYQQKPGQPPKLLIFWASTRESGVPDRFSGSGFGTDFTLTISSLQAEDVAVYYCQQYFSYPLTFGQGTKVEIK
notes: also called FAP-mAb; anti-FAP mAb
B1: the binding result is on record as “binds”.

B2: corresponding monoclonal antibody having the same FAP binding site as FAP-multi-specific BP 4G8 (antibody, V domains shown)
VH: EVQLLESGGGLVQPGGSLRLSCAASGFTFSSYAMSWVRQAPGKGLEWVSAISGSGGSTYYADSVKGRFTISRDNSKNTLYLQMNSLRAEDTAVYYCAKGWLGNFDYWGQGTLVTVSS
VL: EIVLTQSPGTLSLSPGERATLSCRASQSVSRSYLAWYQQKPGQAPRLLIIGASTRATGIPDRFSGSGSGTDFTLTISRLEPEDFAVYYCQQGQVIPPTFGQGTKVEIK
notes: as for B1
Regarding B2, the binding result is given as “binds”.

B3: corresponding monoclonal antibody having the same FAP binding site as FAP-multi-specific BP 29B11 (antibody, V domains shown)
VH: EVQLLESGGGLVQPGGSLRLSCAASGFTFSSYAMSWVRQAPGKGLEWVSAIIGSGGITYYADSVKGRFTISRDNSKNTLYLQMNSLRAEDTAVYYCAKGWFGGFNYWGQGTLVTVSS
VL: EIVLTQSPGTLSLSPGERATLSCRASQSVTSSYLAWYQQKPGQAPRLLINVGSRRATGIPDRFSGSGSGTDFTLTISRLEPEDFAVYYCQQGIMLPPTFGQGTKVEIK
notes: as for B1
As to B3, the binding result is listed as “binds”.
